This is an account of results in patent US20040053383A1, “Crystals of cytochrome P450 2C9, structures thereof and their use” (ASTEX TECHNOLOGY LTD., priority 2001, published 2004).

In data set [1] the test system is P450 2C9. It counts as biochemical, human.
Procedure: Activity assays on P450 2C9 were performed in a 96-well plate assay format with a Fluoroscan Ascent FL Instruments (Labsystem), using the 7-methoxy-4-(trifluoromethyl)-coumarin as a fluorescent substrate.
Data set [2] relates to P450 2C9. Nature of the data set: Functionality assay with methoxy-4-(trifluoromethyl)-coumarin as fluorescent substrate (Examples 6 and 8). Format: biochemical, human. As to conditions: 140 μM methoxy-4-(trifluoromethyl)-coumarin, 37° C. The protocol: Activity assays on P450 2C9 were performed in a 96-well plate assay format with a Fluoroscan Ascent FL Instruments (Labsystem), using the methoxy-4-(trifluoromethyl)-coumarin as a fluorescent substrate.
Fifteen pmoles of P450 were reconstituted with 0.1 unit of purified human oxidoreductase, in presence of 140 μM of substrate methoxy-4-(trifluoromethyl)-coumarin, a NADPH regenerating system that includes 0.15 mM NADP^+, 0.38 mM Glucose-6-phosphate and 2.9 unit/ml glucose-6-phosphate dehydrogenase in 170 μl final volume of 25 mM KPi, pH 7.4, 0.38 mM MgCl2 Incubations were performed at 37° C. for several minutes and 7-hydroxy-4-(trifluoromethyl)-coumarin was used as metabolite standard to determinate the metabolic rate. The excitation and emission wavelengths used were respectively 409 and 530 nm.
Fifteen pmoles of P450 were reconstituted with 0.1 unit of purified human oxidoreductase, in presence of 140 μM of substrate methoxy-4-(trifluoromethyl)-coumarin, a NADPH regenerating system that includes 0.15 mM NADP^+, 0.38 mM Glucose-6-phosphate and 2.9 unit/ml glucose-6-phosphate dehydrogenase in 170 μl final volume of 25 mM KPi, pH 7.4, 0.38 mM MgCl2. Incubations were performed at 37° C. for several minutes and 7-hydroxy-4-(trifluoromethyl)-coumarin was used as metabolite standard to determinate the metabolic rate. […]

Another data set concerns the target 2C19 (Homo sapiens, UniProt P33261). As to conditions: cited from earlier work.

B1: Clone 1155: 2C9-FGloop with the substitution Lys206Glu (protein)
chain: MAKKTSSKGRPPGPTPLPVIGNILQIGIKDISKSLTNLSKVYGPVFTLYFGLKPIVVLHGYEAVKEALIDLGEEFSGRGIFPLAERANRGFGIVFSNGKKWKEIRRFSLMTLRNFGMGKRSIEDRVQEEARCLVEELRKTKASPCDPTFILGCAPCNVICSIIFHKRFDYKDQQFLNLMEKLNENIEILSSPWIQVYNNFPALLDYFPGTHNKLLKNVAFMKSYILEKVKEHQESMDMNNPQDFIDCFLMKMEKEKHNQPSEFTIESLENTAVDLFGAGTETTSTTLRYALLLLLKHPEVTAKVQEEIERVIGRNRSPCMQDRSHMPYTDAVVHEVQRYIDLLPTSLPHAVTCDIKFRNYLIPKGTTILISLTSVLHDNKEFPNPEMFDPHHFLDEGGNFKKSKYFMPFSAGKRICVGEALAGMELFLFLTSILQNFNLKSLVDPKNLDTTPVVNGFASVPPFYQLCFIPVHHHH
Turning to B1, the 7-MFC with P450 2C9 [1] was 0.23 min⁻¹. Besides, the “activity with 2C9 substrate” value in the data set on P450 2C9 [2] worked out at 0.083 pmol/min/pmol P450.

B2: 2C19: human cytochrome P450 2C19, published data (protein, UniProt P33261 1-490, looked up)
Cytochrome P450 2C19: MDPFVVLVLCLSCLLLLSIWRQSSGRGKLPPGPTPLPVIGNILQIDIKDVSKSLTNLSKIYGPVFTLYFGLERMVVLHGYEVVKEALIDLGEEFSGRGHFPLAERANRGFGIVFSNGKRWKEIRRFSLMTLRNFGMGKRSIEDRVQEEARCLVEELRKTKASPCDPTFILGCAPCNVICSIIFQKRFDYKDQQFLNLMEKLNENIRIVSTPWIQICNNFPTIIDYFPGTHNKLLKNLAFMESDILEKVKEHQESMDINNPRDFIDCFLIKMEKEKQNQQSEFTIENLVITAADLLGAGTETTSTTLRYALLLLLKHPEVTAKVQEEIERVIGRNRSPCMQDRGHMPYTDAVVHEVQRYIDLIPTSLPHAVTCDVKFRNYLIPKGTTILTSLTSVLHDNKEFPNPEMFDPRHFLDEGGNFKKSNYFMPFSAGKRICVGEGLARMELFLFLTFILQNFNLKSLIDPKDLDTTPVVNGFASVPPFYQLCFIPV
Turning to B2, the 7-MFC in the data set with 2C19 is 2.98 min⁻¹.
